Assay [1] has as its target c-Met/HGF receptor of rat liver plasma membrane (rat) (UniProt P97523). Nature of the assay: Scatchard analysis, 125I-HGF on rat liver plasma membrane.
The target is the same in assay [2]. The experiment in a line: displacement of 60 pM 125I-HGF from rat liver plasma membrane.
In assay [3] the target is c-Met/HGF receptor expressed on the lung tumor cell line A549 (UniProt P08581). Nature of the assay: cell-based or functional assay.
Assay [4] deals with T1, c-Met/HGF receptor of rat liver plasma membrane (rat, UniProt P97523 25-1382).
T1 construct: whole, on cells; The assay used a plasma membrane preparation, not a purified receptor; also called cell surface receptor; HGF receptors
The experiment in a line: displacement of 60 pM 125I-HGF from rat liver plasma membrane. An excerpt: (§1) Using the HGF/NK4 prepared in Example 1, its binding affinity for the cell surface receptor was investigated. As a control experiment, the binding affinity of HGF for the cell surface receptor was also investigated. In this connection, the HGF/NK4 and HGF were radio-labeled (¹²⁵I-HGF/NK4 and ¹²⁵I-HGF) by the chloramine-T method, and as the cell surface receptor sample, the plasma membrane prepared from the rat liver was used.
Then, to investigate whether HGF/NK4 is a competitive antagonist of HGF, the liver plasma membrane (50 μg) was incubated in the presence of ¹²⁵I-HGF alone (60 pM) or a mixture of ¹²⁵I-HGF and a varying amount of unlabeled HGF or unlabeled HGF/NK4.

Assay [5] addresses T1, c-Met/HGF receptor of rat liver plasma …. Nature of the assay: Scatchard analysis, 125I-HGF/NK4 on rat liver plasma membrane.
Text: as §1

What is called Kd is the concentration at which binding is half-saturated. Lower therefore signals higher affinity. What is called IC50 is the concentration at which inhibition is half-maximal. The low end stands for inhibition by little substance, the high end for a need for much substance.

Sequence of c-Met/HGF receptor expressed on the lung tumor cell line A549 (P08581 25-1390 limits assumed): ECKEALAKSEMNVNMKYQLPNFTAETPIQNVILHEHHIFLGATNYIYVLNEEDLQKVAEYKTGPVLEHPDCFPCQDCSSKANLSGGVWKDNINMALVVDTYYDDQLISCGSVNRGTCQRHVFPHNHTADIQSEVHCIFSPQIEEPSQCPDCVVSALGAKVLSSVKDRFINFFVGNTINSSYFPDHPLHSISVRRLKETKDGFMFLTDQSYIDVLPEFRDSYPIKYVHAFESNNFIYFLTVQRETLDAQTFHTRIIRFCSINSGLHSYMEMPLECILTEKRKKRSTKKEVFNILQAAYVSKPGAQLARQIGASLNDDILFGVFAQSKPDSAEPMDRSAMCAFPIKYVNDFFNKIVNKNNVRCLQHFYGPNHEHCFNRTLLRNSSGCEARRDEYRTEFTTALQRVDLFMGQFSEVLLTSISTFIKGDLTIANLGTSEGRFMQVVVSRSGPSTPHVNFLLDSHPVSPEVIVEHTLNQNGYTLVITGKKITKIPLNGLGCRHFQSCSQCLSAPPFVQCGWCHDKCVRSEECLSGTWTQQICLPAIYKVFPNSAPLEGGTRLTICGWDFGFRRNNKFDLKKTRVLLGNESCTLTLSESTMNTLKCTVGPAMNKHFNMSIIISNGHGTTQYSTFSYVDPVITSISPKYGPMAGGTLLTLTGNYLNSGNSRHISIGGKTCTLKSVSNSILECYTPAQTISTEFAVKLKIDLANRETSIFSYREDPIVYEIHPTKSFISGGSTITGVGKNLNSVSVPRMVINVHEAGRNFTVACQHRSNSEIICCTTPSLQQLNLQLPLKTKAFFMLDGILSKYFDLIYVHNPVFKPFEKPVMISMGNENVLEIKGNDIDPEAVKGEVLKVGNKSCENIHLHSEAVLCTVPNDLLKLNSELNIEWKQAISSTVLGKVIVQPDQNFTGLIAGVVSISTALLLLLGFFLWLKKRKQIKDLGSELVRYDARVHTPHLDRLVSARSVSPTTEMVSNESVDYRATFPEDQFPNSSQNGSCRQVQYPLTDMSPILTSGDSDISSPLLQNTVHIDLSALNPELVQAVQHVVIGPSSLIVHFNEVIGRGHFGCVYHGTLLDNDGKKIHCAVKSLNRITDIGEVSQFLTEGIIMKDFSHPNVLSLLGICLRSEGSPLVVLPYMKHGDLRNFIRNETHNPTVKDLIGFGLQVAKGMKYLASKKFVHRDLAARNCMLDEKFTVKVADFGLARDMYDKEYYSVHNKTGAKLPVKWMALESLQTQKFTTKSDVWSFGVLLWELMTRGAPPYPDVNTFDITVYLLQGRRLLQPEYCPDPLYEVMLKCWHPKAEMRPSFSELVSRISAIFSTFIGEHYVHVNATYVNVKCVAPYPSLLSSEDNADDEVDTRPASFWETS

In the case of “recombinant human hepatocyte growth factor (HGF), heterodimer of alpha-chain and beta-chain (from UniProt P14210 32-494; P14210 495-728) (ligand)”, the Kd in assay [1] turned out to be 0.0645 nM. The IC50 in assay [2] worked out at 0.06 nM. The molecule further came in with a tyrosine phosphorylation of c-Met in A549 cells (immunoprecipitation with anti-c-Met antibody, Western blot with anti-phosphotyrosine antibody) in assay [3] of 110 pM.

B1: HGF/NK4 (PyrGlu32-Val478 region of human HGF, obtained by elastase digestion of recombinant HGF) (ligand)
chain: ERKRRNTIHEFKKSAKTTLIKIDPALKIKTKKVNTADQCANRCTRNKGLPFTCKAFVFDKARKQCLWFPFNSMSSGVKKEFGHEFDLYENKDYIRNCIIGKGRSYKGTVSITKSGIKCQPWSSMIPHEHSFLPSSYRGKDLQENYCRNPRGEEGGPWCFTSNPEVRYEVCDIPQCSEVECMTCNGESYRGLMDHTESGKICQRWDHQTPHRHKFLPERYPDKGFDDNYCRNPDGQPRPWCYTLDPHTRWEYCAIKTCADNTMNDTDVPLETTECIQGQGEGYRGTVNTIWNGIPCQRWDSQYPHEHDMTPENFKCKDLRENYCRNPDGSESPWCFTTDPNIRVGYCSQIPNCDMSHGQDCYRGNGKNYMGNLSQTRSGLTCSMWDKNMEDLHRHIFWEPDASKLNENYCRNPDDDAHGPWCYTGNPLIPWDYCPISRCEGDTTPTIV
modifications: N-terminal residue is pyroglutamate (PyrGlu32 by prepro-HGF numbering; Xaa at position 1 of SEQ ID NO:1)
notes: also called unlabeled HGF/NK4
In turn, B1 displayed an IC50 in assay [4] of 0.6 nM. This molecule registered a dissociation constant Kd in assay [5] of 0.486 nM.

The values are drawn from US20090023658A1 (TOSHIKAZU NAKAMURA, published 2009).
